In the domain aggregation screens of Martell et al. (2025):

Assay: soluble fraction after stress (log2 fold change); higher = more stays soluble; pooled small domains, quantitative proteomics
Conditions: stress: 75 degC
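Also: 20 min heating vs room temperature control held 20 min.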

Sequence	soluble fraction (log2)
HMSRVTVDVNPDVLQWAIDKKGKGDIKNKFPKIDEWLNGISKPTIHQLENFAKYVSVPFGYLLLSKPPVE	0.208
HMSRYQDIANDIEKDIIEKKYTRKLPEQFELAQKYQTSRVTIVHALKILQNKKLIRTVKGHGTFITS	-1.84
HMSSDEDELESIIKRVFADNPIELERLQNGEDKLIKFFMGLVMRQTKGKYPPKIIIDLLNKS	-0.599
HMSSDLDQYMKNIRKQHNLSKREFAKQLGISAATIVRIENGITVSPSKNLISKLAYYLQKSEVEILQDIQS	-1.16
HMSSEMATLRSIVDNKQAEKVHGMMVDMFTASAMVQVYDKVNDENQAKMREMLKTQKGFQRMADFALSKI	-0.143
HMSSEPASLVGKTGVAASVLRPSGRVEVNGEYYDAVSINGFIEKGESVFVHKYENAQLYVSKNSE	0.162
HMSSESIKTDKNVGVGSTLEELEKAYGSDYTLSGKMYRYYQDDNSKYMYFFILNDVVQYYGYGIDV	-1.65
HMSSIDLTARSGRAALKHRLSLLGYEFSKIELETLYVRFIELADEKKLLHDEDLIELVKEKN	-3.12
HMSSIRDVVPEGLLSDREKLVLVLAFDRDLDGPDMARTLGISANTVRVLKARALKKLRQAGIQP	-0.954
HMSSIVLTARSGRAALAYRVKSIGVDLSKDQLDLVYKTFLGFADKKKEIIDTDIPQILKASGI	-2.74
HMSSIYVYPNPTANRIYIQADNIKKAELFDLMGRKVRSTNQPQIDISRLSRGNYILQVKTQNNTQSFKIIK	-0.705
HMSSKAVLEKFEALFIDQMLQSMRKATVRSELFDSEGIKLYESLFDKEISEELAKSGGLGLTKDLEQQL	-1.36
HMSSKFKIVGEILSIKKSDILYIIEILSNNEVVKATAVEDEIKDLKIGDKILLSSKAFNPIVNK	-2.29
HMSSLTDNFVKALSYYLALSGKSKKEVADGIGIPPTTFSSWSNGKHLPDMDRLQNLATYLGAPVSEFFDFT	0.238
HMSSPVGIAQATTYVYVRAGHSMQAAKVGVLSPGEKVGVTGRSAQGFSEVVYNGVHRWVGSRYLSPT	-4.43
HMSSQWWYSAGGERKGPVDFATLRGLYVQGAIDGRTLAWREDMQGWEAVNDIPDLEPLRRAVPPEL	-0.0747
HMSSRSLSYSDFIERVDAGQVSKVVMDGERLVVVGQDGTSYVTIKPPGDQVTENLSRELISKGVEVEAEPQ	-0.0305
HMSSRSLTYSDFIERVDAGQVDAVTLDGERIVIRAKDGNTYVAIKPQGEDVTGSLTRDLIAKGVDVEAEPQ	0.204
HMSSSDYDVYNKAINLMLNLLKEPKSIEEVTASLNITKSQAITWINRALNEGKIIKTNRPVRYVVNN	-1.39
HMSSSYMVRITTSVLNVRKGPGTNYGITTKVKKGEVYTIVAEEKNGNTTWGKLKSGTGYISLGYTER	-1.21
HMSSSYVYGGNGEIVILSDVSKHLNVYNLNGQKVTDVNLTAGELQRISIATGIYVVGGKKIVV	-3.52
HMSSVGELEVGNIFEGTVNSVRGGKVLLALGNGQMVLAQMDGRVNITPGSSMFFQVKSNDGETVAIRPYTG	-0.247
HMSSWAEGLTERERHTLMWITKGLSNKLIARELGISDSTVKVYVKNLLRKLNVNSRLELAAWVHTHPL	-1.2

Sequence	soluble fraction (log2)
HMSSYTQEDVRSGILYMAQLKPRNIEEFVSTLAFSKDDIMDNLSFLVDEGFLKFDADTDTYFNPVPL	-0.374
HMSTADGGYPSIVINDGRVIDTNLQKLGLDRSWLSAELKRQGKGSEKDIFLMTVNQRREVYISVKEA	-1.89
HMSTEAFLGTEGEVVLPLLPDGLGKIRLHVADQDVELPARTGGEPIQIRERVVVVRFRDGIAEVEPAP	0.0378
HMSTEDYLKTIYILESQQGVHGSDVARMLKVTRPTVSIALKALEQEGYVWMDESRLVHLTDSGLQIAKDT	-0.914
HMSTESAHLGERMLNQALRAMHIEPDQITEAHWQKLIRDYGLKKKSEILTDIGLGKRQNVMVAHQLLAMG	-0.539
HMSTFKSYRGKITASSGVNIRTGAGTNYNKNGALTYNSVVTIVDEKKVSGTTWGKLADGRGWISLDYLKK	-2.04
HMSTGGDLTQRERELLGLMARGLSNQEISKRLTIAMPTVKFHVTNILAKLHADNRTEAVLVALKNKLVAL	-1.02
HMSTINGIEKYLSSGLIPYIGPKTAKRIVEKFGLDTLEIIQYNPERLKEIEGIGDKKLKKIVEAFEEQG	-0.245
HMSTISPNAFNFLQQNLNKFSDDAEGKMIKDILSKTTYDEYVKNEKSKTDFNSLLRRQTTTGDDNLNRYIN	-0.00511
HMSTKEFTIHAGEWSYRVSQKLENLGLVSDAKKFDQYLEDNGYSSKIKIGHYTISKDADFEEIAKEIT	0.632
HMSTKRGEILEFLKDFSARKGYAPSVREIMQAVGLKSTASVHYHLSELHKAGLITVDGTKNRAISLA	-1.11
HMSTMKSKWFVSSNPIAGVMKYQAQRKKDVNAVDSSENREASGQWYTDKEEAQAIVDKLNAEEQIKEAGK	-0.0426
HMSTMLPFVMRELVELVMKKKALPLGDALYYIYSSKLYKSLLDKSTKLWYSSTLSLYETLEKEKTEEKRRY	-2.04
HMSTMTDAQRHLFANKLSQLPEMGKYSHGTESYQQFAVRIAEMLQTPKKFKELYPYLQKVGFKA	-0.379
HMSTNYVQVLRAALNGVSGRKLAQQYRVSRDTVAILLRQAKIQGWQRAEDLENITEEDLVALLSG	-2.43
HMSTPLPTGLPRGTIIEYTVQTDETLAIIAAKFNSTVDDIMTRNKITDPNTIYAGQILKVAINLVTP	-1.62
HMSTPVPIEGQPTENLNLRDQPSTSGKILTTIPKGKTVTILSEKNANGWYKVSYNGKTGYVSGSYFKVTK	0.916
HMSTSERLKQVMEVKGFNLKTFSEQADIPYRTLQNYILTNREPSAESLAKLHSQLGINLNWLMSGKGEMF	-0.685
HMSTSIADNSSITYKVRKGDSLASIAKRHGVNINDVMRWNSVITKASQIQPGDMLTLYVRDS	0.148
HMSTTALLEKMVRYIRTLPVISQVVLSLHYYRGMELREIASELDITESRASQLHTTAVLGIRDLLSSY	-3.11
HMSTTGIVKWFNEEKGFGFITQDQGGADVFVHYRAIASEGFKTLAEGQKVSFEVEQGQKGLQAANVQA	0.333
HMSTTHLTASVIKDKVNVRSEADSQNGAIIDKARTGERLLVTDYGNKWTGIVLPDGKRGYIMTEYLQF	-0.114
HMSTTSYTQFMEDAKAGKIARVDIKGREITVTPTEGSRYVITSPGDLWMVDDLRKDGVQVYGPP	0.0558

Sequence	soluble fraction (log2)
HMSTTYLNEGDRITLTDSVNIRTSMSETADRVGLAYQGDVVTVIMSYAEGWTKVSWNGQTGYAKTEYL	-1.52
HMSTVIENVFKNFEVYEIKKGDTFYNIEKRFGVNRQELLVLNPELKEGLKLGMVLKIKEIIP	-3.02
HMSTYTETETAYLKAYSAAGVDGKISDSERGILNMTAEALGITVERTTELEAMFNLTVEEEA	-0.0838
HMSVDIWTGAQTGNIEAVKQHLADGVDVNSKSDIGRTALDVAIAFKQPLITDLLRKHGGKTRDELKAAE	≥ 1.04
HMSVEVADITRAYYEGVGFEWWIRSVRLDPNELIVDNDDEGKLYRVPFEINGEEVTFGDPVEVKIRYE	-0.995
HMSVFGDNVARLRAEHGMSQRALAERLEITNGTVAAWESRDTLPDYDRIRQIAEIFDVPIPQLFAKYIP	-1.54
HMSVISVETAKSKALAHAGLTASKVTFIENKLEWDDGRQVYDIEFYTSDYKEYDYTIDAVSGQVLEFDY	-1.67
HMSVKLMEVKGASTVVSRQVREAVSIVFPTSSMRLDLVALKARIEGVDAVKRADVYLRNGILEIQIDER	-2.11
HMSVKLYPNPTRSVTTFATDVDKWYLYDNQGKLVSEGNTKTIDVTAFPVGIYFVKTIKGNNSTFVKLIV	-2.14
HMSVLNLQTDIPKKYTDVLGTSVKGRLNTLVHNVIINSVDRPVIQMSEEVHEAMQGLRIFMFENVYRNPV	0.187
HMSVLSEQIKEQLMEDIFHKKYKAGDRIVESALARELGVSQASVREALRSLIAMGFLENEPFKGITVR	-0.000514
HMSVNAPMPGKIVNVLVSEGQKVNSGDVLLILEAMKMQNEIAATQAGTVKAINVAAGQSVKVGDALVN	-0.0534
HMSVPQENKDLLGRSIEIFYAGKTVEAKVTDTGALAPLGRALDLSPATWRAFGASSISDWGVRGVFYRFVA	0.212
HMSVSTGTITGSVVNLREEPNTSSKVLDKLPKDTVVYVLSASGEWYNVSYGDKTGWVYGEYLA	-0.737
HMSVTSEIGAKIKYFRKSKHFSLQEMADLLYKSKSTLSKYENGQISIDIETLYAIAKVLGVHVEQLLYSEP	-5.12
HMSVTSIEGRVVYDENANKIGIAKQVGIDSTQSMVLVLTKNDGTEGSISWNNIKKIGEIILLGN	-0.908
HMSWAGRRSLAALEARYRDETGISNLKIKHNGVLGYHIEVPSKSADKLMAPDSGFTHRQTLAGAVR	0.228
HMSYDAINGYEPSDLRGSLTLEQTASMLNLPLTDVYARLGLPANYPSGATLKDGAADMGMGLSDFKHQLF	-0.121
HMSYLDTLPGRRVAAQGAITGDAGTLAVDGDTWSARVEPGAPDVAPGDEVTVLRIDGATLVVRPLP	0.0276
HMSYPFSEDALKEKIREYLKHNRSINRKVLEAEFHIRKQTALNWLKKLEKSGFLIKEGSRNAPVYFLAE	-1.83
HMSYQADEIKEKLIDILQNQKTGLSGLEISERIGINRITMTKYLQVFAAEGFIKQKNIGNVIIWFIEDGTE	-1.05
HMSYTYPVARLNHIKGKWYVLVSVPAHLRHLFPNQRDLRRSTGTDDESLAKRKQHALAQEIYDLFD	-0.653
HMTAFEPYLVKVMASVLNIRKGPGTSYAITGQIKDKGTYTIVAESGSWGKLKSGAGWISLSYTSKAGKA	-1.82
